Each block holds one molecule with its values, some of them ahead of it.
Experiments:
[1] = test system: embryonal chicken chondrocytes; assay: Increase of DNA synthesis of embryonal chicken chondrocytes; format: cell-based; conditions: for DNA synthesis (%) relative activity: relative to recombinant hPTH (=100), stimulation beyond the base level, chondrocytes; for Effect on stimulation of DNA synthesis (in words, group classification): qualitative, versus wild type PTH
Description: They were also tested for their ability, according to DE-A-37 25 319.0 and DE-A-37 25 320.4, to increase the DNA synthesis of embryonal chicken chondrocytes.

[2] = test system: adenylate cyclase in isolated membranes of porcine adrenal cortices; assay: Stimulation of adenylate cyclase in isolated membranes, in vitro test according to Mohr and Hesch; format: biochemical; conditions: for Adenylate cyclase (%) relative activity: relative to recombinant hPTH (=100), stimulation beyond the base level; for Effect on adenylate cyclase stimulation (in words, group classification): qualitative, versus wild type PTH
Description: The PTH variants so obtained were tested for their ability to stimulate adenylate cyclase in isolated membranes of porcine adrenal cortices in an in vitro test according to Mohr and Hesch (Biochem. J., 188 (1980) 649-656) .

Molecule: rec-hPTH: recombinant human parathyroid hormone wild type, lengthened N-terminally by one proline residue; reference = 100 % [reference compound]
DNA synthesis (%) relative activity [1]: 100%
Adenylate cyclase (%) relative activity [2]: 100%

Effect on adenylate cyclase stimulation (in words, group classification) [2]: maintain the stimulation
B1: Q29N: hPTH variant Gln(29) -> Asn(29), lengthened N-terminally by one proline (protein, UniProt P01270 32-115, looked up, variant Q29N)
Parathyroid hormone: SVSEIQLMHNLGKHLNSMERVEWLRKKLNDVHNFVALGAPLAPRDAGSQRPRKKEDNVLVESHEKSLGEADKADVNVLTKAKSQ
modifications: Parathyroid hormone N-terminal proline extension
notes: hPTH variant Gln(29) -> Asn(29), lengthened N-terminally by one proline
Effect on stimulation of DNA synthesis (in words, group classification) [1]: maintain the stimulation
DNA synthesis (%) relative activity [1]: 95%
Adenylate cyclase (%) relative activity [2]: 99%

B2: H32K: hPTH variant His(32) -> Lys(32), lengthened N-terminally by one proline (protein, UniProt P01270 32-115, looked up, variant H32K)
Parathyroid hormone: SVSEIQLMHNLGKHLNSMERVEWLRKKLQDVKNFVALGAPLAPRDAGSQRPRKKEDNVLVESHEKSLGEADKADVNVLTKAKSQ
modifications: Parathyroid hormone N-terminal proline extension
notes: hPTH variant His(32) -> Lys(32), lengthened N-terminally by one proline
Effect on stimulation of DNA synthesis (in words, group classification) [1]: significant reduction in the stimulation of DNA synthesis
DNA synthesis (%) relative activity [1]: 22%
Effect on adenylate cyclase stimulation (in words, group classification) [2]: substantial retention of the effect on adenylate cyclase
Adenylate cyclase (%) relative activity [2]: 85%

B3: K27L: hPTH variant Lys(27) -> Leu(27), lengthened N-terminally by one proline (protein, UniProt P01270 32-115, looked up, variant K27L)
Parathyroid hormone: SVSEIQLMHNLGKHLNSMERVEWLRKLLQDVHNFVALGAPLAPRDAGSQRPRKKEDNVLVESHEKSLGEADKADVNVLTKAKSQ
modifications: Parathyroid hormone N-terminal proline extension
notes: hPTH variant Lys(27) -> Leu(27), lengthened N-terminally by one proline
Effect on stimulation of DNA synthesis (in words, group classification) [1]: increase in DNA synthesis
DNA synthesis (%) relative activity [1]: 70%
Effect on adenylate cyclase stimulation (in words, group classification) [2]: significant reduction in adenylate cyclase stimulation
Adenylate cyclase (%) relative activity [2]: 35%

Effect on adenylate cyclase stimulation (in words, group classification) [2]: maintain the stimulation
B4: K27R: hPTH variant Lys(27) -> Arg(27), lengthened N-terminally by one proline (protein, UniProt P01270 32-115, looked up, variant K27R)
Parathyroid hormone: SVSEIQLMHNLGKHLNSMERVEWLRKRLQDVHNFVALGAPLAPRDAGSQRPRKKEDNVLVESHEKSLGEADKADVNVLTKAKSQ
modifications: Parathyroid hormone N-terminal proline extension
notes: hPTH variant Lys(27) -> Arg(27), lengthened N-terminally by one proline
Effect on stimulation of DNA synthesis (in words, group classification) [1]: maintain the stimulation
DNA synthesis (%) relative activity [1]: 81%
Adenylate cyclase (%) relative activity [2]: 90%

B5: E4R, R20E: hPTH variant Glu(4) Arg(20) -> Arg(4), Glu(20), lengthened N-terminally by one proline (protein, UniProt P01270 32-115, looked up, variant E4R R20E)
Parathyroid hormone: SVSRIQLMHNLGKHLNSMEEVEWLRKKLQDVHNFVALGAPLAPRDAGSQRPRKKEDNVLVESHEKSLGEADKADVNVLTKAKSQ
modifications: Parathyroid hormone N-terminal proline extension
notes: hPTH variant Glu(4) Arg(20) -> Arg(4), Glu(20), lengthened N-terminally by one proline
Effect on stimulation of DNA synthesis (in words, group classification) [1]: increase in DNA synthesis
DNA synthesis (%) relative activity [1]: 58%
Effect on adenylate cyclase stimulation (in words, group classification) [2]: significant reduction in adenylate cyclase stimulation
Adenylate cyclase (%) relative activity [2]: 20%

B6: K13P: hPTH variant Lys(13) -> Pro(13), lengthened N-terminally by one proline (protein, UniProt P01270 32-115, looked up, variant K13P)
Parathyroid hormone: SVSEIQLMHNLGPHLNSMERVEWLRKKLQDVHNFVALGAPLAPRDAGSQRPRKKEDNVLVESHEKSLGEADKADVNVLTKAKSQ
modifications: Parathyroid hormone N-terminal proline extension
notes: hPTH variant Lys(13) -> Pro(13), lengthened N-terminally by one proline
Effect on stimulation of DNA synthesis (in words, group classification) [1]: increase in DNA synthesis
DNA synthesis (%) relative activity [1]: 88%
Effect on adenylate cyclase stimulation (in words, group classification) [2]: significant reduction in adenylate cyclase stimulation
Adenylate cyclase (%) relative activity [2]: 6%

B7: R20E: hPTH variant Arg(20) -> Glu(20), lengthened N-terminally by one proline (protein, UniProt P01270 32-115, looked up, variant R20E)
Parathyroid hormone: SVSEIQLMHNLGKHLNSMEEVEWLRKKLQDVHNFVALGAPLAPRDAGSQRPRKKEDNVLVESHEKSLGEADKADVNVLTKAKSQ
modifications: Parathyroid hormone N-terminal proline extension
notes: hPTH variant Arg(20) -> Glu(20), lengthened N-terminally by one proline
Effect on stimulation of DNA synthesis (in words, group classification) [1]: unaffected DNA synthesis
DNA synthesis (%) relative activity [1]: 0%
Effect on adenylate cyclase stimulation (in words, group classification) [2]: significant reduction in adenylate cyclase stimulation
Adenylate cyclase (%) relative activity [2]: 0%

B8: E4R: hPTH variant Glu(4) -> Arg(4), lengthened N-terminally by one proline (protein, UniProt P01270 32-115, looked up, variant E4R)
Parathyroid hormone: SVSRIQLMHNLGKHLNSMERVEWLRKKLQDVHNFVALGAPLAPRDAGSQRPRKKEDNVLVESHEKSLGEADKADVNVLTKAKSQ
modifications: Parathyroid hormone N-terminal proline extension
notes: hPTH variant Glu(4) -> Arg(4), lengthened N-terminally by one proline
Effect on stimulation of DNA synthesis (in words, group classification) [1]: increase in DNA synthesis
DNA synthesis (%) relative activity [1]: 88%
Effect on adenylate cyclase stimulation (in words, group classification) [2]: significant reduction in adenylate cyclase stimulation
Adenylate cyclase (%) relative activity [2]: 47%

B9: H32L: hPTH variant His(32) -> Leu(32), lengthened N-terminally by one proline (protein, UniProt P01270 32-115, looked up, variant H32L)
Parathyroid hormone: SVSEIQLMHNLGKHLNSMERVEWLRKKLQDVLNFVALGAPLAPRDAGSQRPRKKEDNVLVESHEKSLGEADKADVNVLTKAKSQ
modifications: Parathyroid hormone N-terminal proline extension
notes: hPTH variant His(32) -> Leu(32), lengthened N-terminally by one proline
Effect on stimulation of DNA synthesis (in words, group classification) [1]: significant reduction in the stimulation of DNA synthesis
DNA synthesis (%) relative activity [1]: 11%
Effect on adenylate cyclase stimulation (in words, group classification) [2]: substantial retention of the effect on adenylate cyclase
Adenylate cyclase (%) relative activity [2]: 93%

B10: L11K: hPTH variant Leu(11) -> Lys(11), lengthened N-terminally by one proline (protein, UniProt P01270 32-115, looked up, variant L11K)
Parathyroid hormone: SVSEIQLMHNKGKHLNSMERVEWLRKKLQDVHNFVALGAPLAPRDAGSQRPRKKEDNVLVESHEKSLGEADKADVNVLTKAKSQ
modifications: Parathyroid hormone N-terminal proline extension
notes: hPTH variant Leu(11) -> Lys(11), lengthened N-terminally by one proline
Effect on stimulation of DNA synthesis (in words, group classification) [1]: reduce that of DNA synthesis
DNA synthesis (%) relative activity [1]: 21%
Effect on adenylate cyclase stimulation (in words, group classification) [2]: maintain the stimulation of adenylate cyclase
Adenylate cyclase (%) relative activity [2]: 89%

B11: Q29A: hPTH variant Gln(29) -> Ala(29), lengthened N-terminally by one proline (protein, UniProt P01270 32-115, looked up, variant Q29A)
Parathyroid hormone: SVSEIQLMHNLGKHLNSMERVEWLRKKLADVHNFVALGAPLAPRDAGSQRPRKKEDNVLVESHEKSLGEADKADVNVLTKAKSQ
modifications: Parathyroid hormone N-terminal proline extension
notes: hPTH variant Gln(29) -> Ala(29), lengthened N-terminally by one proline
Effect on stimulation of DNA synthesis (in words, group classification) [1]: significant reduction in the stimulation of DNA synthesis
DNA synthesis (%) relative activity [1]: 8%
Effect on adenylate cyclase stimulation (in words, group classification) [2]: substantial retention of the effect on adenylate cyclase
Adenylate cyclase (%) relative activity [2]: 104%

B12: H32R: hPTH variant His(32) -> Arg(32), lengthened N-terminally by one proline (protein, UniProt P01270 32-115, looked up, variant H32R)
Parathyroid hormone: SVSEIQLMHNLGKHLNSMERVEWLRKKLQDVRNFVALGAPLAPRDAGSQRPRKKEDNVLVESHEKSLGEADKADVNVLTKAKSQ
modifications: Parathyroid hormone N-terminal proline extension
notes: hPTH variant His(32) -> Arg(32), lengthened N-terminally by one proline
Effect on stimulation of DNA synthesis (in words, group classification) [1]: significant reduction in the stimulation of DNA synthesis
DNA synthesis (%) relative activity [1]: 36%
Effect on adenylate cyclase stimulation (in words, group classification) [2]: substantial retention of the effect on adenylate cyclase
Adenylate cyclase (%) relative activity [2]: 87%
